Where two headings read alike, the source gives them in different places.
Legend:
DC [1] = test: Preliminary experiments: daily injection of FLT3 L into mice, numbers of DC; assay type: in vivo; conditions: daily injection of 10 μg into mice for 10 days
DC [2] = conditions: after multiple injections, cited from earlier work

B1: FLT3-ligand: cytokine factor promoting growth of hematopoietic progenitors; increases dendritic cell numbers (protein, UniProt P49771 27-235, looked up)
Fms-related tyrosine kinase 3 …: TQDCSFQHSPISSDFAVKIRELSDYLLQDYPVTVASNLQDEELCGGLWRLVLAQRWMERLKTVAGSKMQGLLERVNTEIHFVTKCAFQPPPSCLRFVQTNISRLLQETSEQLVALKPWITRQNFSRCLELQCQPDSSTLPPPWSPRPLEATAPTAPQPPLLLLLLLPVGLLLLAAAWCLHWQRTRRRTPRPGEQVPPVPSPQDLLLVEH
In the case of B1, the “numbers of DC” value (DC [1]) is given as “dramatically increase”, the “increase in DC numbers” value (DC [2]; blood) is given as roughly 6 fold and the “increase in DC numbers” value (DC [2]; peripheral lymph nodes) is given as roughly 4 fold. The “increase in DC numbers” value (DC [2]; spleen) was “approximately 17 fold”.

Source: patent US7850981B2, “Immuno-adjuvant PDT treatment of metastatic tumors” (QLT, Inc., priority 1999, dated 2010)
